According to patent US20110104143A1 (UAB RESEARCH FOUNDATION, published 2011):

Legend:
[1] = biological target: T1, human DR5 (full-length) (human, UniProt O14763 56-440); assay: cell-based or functional assay
[2] = biological target: T1, human DR5 (full-length); assay: cell-based or functional assay; remark: listed apart in the source
[3] = biological target: T1, human DR5 (full-length); assay: co-immunoprecipitation using TRA-8, transfected HEK293A cells
Method: (§1) After 24 hours following transfection, protein expression was determined by Western blot analysis using respective monoclonal antibody. For co-immunoprecipitation analysis, cells were lysed with immunoprecipitation-lysis buffer containing a protease inhibitor cocktail.
(§2) The composition of the DR5 DISC was determined as follows. […] The DR5 DISC was then precipitated overnight at 4° C. with 30 μl beads. After immunoprecipitation, the beads were washed four times with lysis buffer. The beads were then washed five times with 10 mM Tris buffer and resuspended in loading buffer for SDS-PAGE and immunoblotting analyses.

[4] = biological target: T2, cIAP1 (human, UniProt Q13490 1-618, limits assumed); assay: DR5 co-IP and Western blot with anti-DDX3 and anti-cIAP1 antibody
T2 construct: also called DR5-associated cIAP1; purified cIAP1
T2 sequence (Q13490 whole entry): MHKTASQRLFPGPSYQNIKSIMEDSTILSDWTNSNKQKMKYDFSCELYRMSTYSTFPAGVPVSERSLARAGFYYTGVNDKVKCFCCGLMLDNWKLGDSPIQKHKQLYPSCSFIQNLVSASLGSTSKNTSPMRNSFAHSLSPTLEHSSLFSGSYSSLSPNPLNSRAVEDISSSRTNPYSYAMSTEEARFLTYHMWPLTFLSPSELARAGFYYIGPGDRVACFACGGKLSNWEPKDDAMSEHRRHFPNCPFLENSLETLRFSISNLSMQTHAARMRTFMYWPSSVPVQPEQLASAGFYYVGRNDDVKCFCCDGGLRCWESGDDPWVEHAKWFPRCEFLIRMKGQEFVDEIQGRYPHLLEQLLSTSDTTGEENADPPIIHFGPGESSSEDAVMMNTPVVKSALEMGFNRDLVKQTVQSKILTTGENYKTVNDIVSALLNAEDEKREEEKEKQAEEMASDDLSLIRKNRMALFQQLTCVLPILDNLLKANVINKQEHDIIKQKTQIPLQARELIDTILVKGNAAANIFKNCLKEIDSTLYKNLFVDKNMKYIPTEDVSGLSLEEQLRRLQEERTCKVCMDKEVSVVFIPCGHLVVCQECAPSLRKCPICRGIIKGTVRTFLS

[5] = biological target: T2, cIAP1; assay: co-immunoprecipitation, transfected HEK293A cells
Method: as §1

[6] = biological target: T1, human DR5 (full-length); assay: co-immunoprecipitation and Western blot with anti-6-His antibody, transfected MDA231 cells
Method: as §2

B1: TRA-8 (anti-human DR5 monoclonal antibody) (antibody, V domains shown)
VH: EVMLVESGGGLVKPGGSLKLSCAASGFTFSSYVMSWVRQTPEKRLEWVATISSGGSYTYYPDSVKGRFTISRDNAKNTLYLQMSSLRSEDTAMYYCARRGDSMITTDYWGQGTTLTVSS
VL: DIVMTQSHKFMSTSVGDRVSITCKASQDVGTAVAWYQQKPGQSPKLLIYWASTRHTGVPDRFTGSGSGTDFTLTISNVQSEDLADYFCQQYSSYRTFGGGTKLEIKR
With B1 the “IC50 of TRA-8 cytotoxicity (ATP cell viability), 2LMP cells” value [1] was 0.0011 µg/mL, the “IC50 of TRA-8 cytotoxicity (ATP cell viability), BT-20 cells” value [1] was 0.048 µg/mL and the “IC50 of TRA-8 cytotoxicity (ATP cell viability), BT-549 cells” value [1] was 0.018 µg/mL. The “IC50 of TRA-8 cytotoxicity (ATP cell viability), HCC38 cells” value [1] was 0.0009 µg/mL, the “IC50 of TRA-8 cytotoxicity (ATP cell viability), HCC1143 cells” value [1] was greater than 1 µg/mL and the “IC50 of TRA-8 cytotoxicity (ATP cell viability), HCC1187 cells” value [1] was 0.024 µg/mL. The “IC50 of TRA-8 cytotoxicity (ATP cell viability), HCC1599 cells” value [1] was greater than 1 µg/mL, the “IC50 of TRA-8 cytotoxicity (ATP cell viability), HCC1937 cells” value [1] was greater than 1 µg/mL and the “IC50 of TRA-8 cytotoxicity (ATP cell viability), MDA-MB-152 cells” value [1] was 0.012 µg/mL. The “IC50 of TRA-8 cytotoxicity (ATP cell viability), MDA-MB-231 cells” value [1] was 0.018 µg/mL, the “IC50 of TRA-8 cytotoxicity (ATP cell viability), MDA-MB-436 cells” value [1] was 0.0032 µg/mL and the “IC50 of TRA-8 cytotoxicity (ATP cell viability), MDA-MB-468 cells” value [1] was 0.017 µg/mL. For the same binder, the “IC50 of TRA-8 cytotoxicity (ATP cell viability), SUM102 cells” value [1] was 0.0045 µg/mL, the “IC50 of TRA-8 cytotoxicity (ATP cell viability), SUM149 cells” value [1] was 0.0009 µg/mL and the “IC50 of TRA-8 cytotoxicity (ATP cell viability), SUM159 cells” value [1] was 0.0019 µg/mL. For the same binder, the “IC50 of TRA-8 cytotoxicity (ATP cell viability), BT-474 cells” value [2] was greater than 1 µg/mL, the “IC50 of TRA-8 cytotoxicity (ATP cell viability), DY36T2 (MDA-MB-361 subclone) cells” value [2] was greater than 1 µg/mL and the “IC50 of TRA-8 cytotoxicity (ATP cell viability), MCF-7 cells” value [2] was greater than 1 µg/mL. For the same binder, the “IC50 of TRA-8 cytotoxicity (ATP cell viability), MDA-MB-134 cells” value [2] was greater than 1 µg/mL, the “IC50 of TRA-8 cytotoxicity (ATP cell viability), MDA-MB-453 cells” value [2] was greater than 1 µg/mL and the “IC50 of TRA-8 cytotoxicity (ATP cell viability), SK-BR-3 cells” value [2] was greater than 1 µg/mL. The “IC50 of TRA-8 cytotoxicity (ATP cell viability), T-47D cells” value [2] was greater than 1 µg/mL, the “IC50 of TRA-8 cytotoxicity (ATP cell viability), ZR-75-1 cells” value [2] was 0.683 µg/mL and the “IC50 of TRA-8 cytotoxicity (ATP cell viability), ZR-75-30 cells” value [2] was greater than 1 µg/mL.

B2: DDX3Δ1-350 (other, human, UniProt O00571 1-350, looked up, not shown: small tags and cut ends)
chain: MSHVAVENALGLDQQFAGLDLNSSDNQSGGSTASKGRYIPPHLRNREATKGFYDKDSSGWSSSKDKDAYSSFGSRSDSRGKSSFFSDRGSGSRGRFDDRGRSDYDGIGSRGDRSGFGKFERGGNSRWCDKSDEDDWSKPLPPSERLEQELFSGGNTGINFEKYDDIPVEATGNNCPPHIESFSDVEMGEIIMGNIELTRYTRPTPVQKHAIPIIKEKRDLMACAQTGSGKTAAFLLPILSQIYSDGPGEALRAMKENGRYGRRKQYPISLVLAPTRELAVQIYEEARKFSYRSRVRPCVVYGGADIGQQIRDLERGCHLLVATPGRLVDMMERGKIGLDFCKYLVLDEAD
notes: range 1-350; Name read as the residues kept; also called C-terminal deleted DDX3
B2: no binding [3].

B3: DDX3ΔCARD (DDX3Δ151-662) (other, human, UniProt O00571 151-662, looked up, not shown: small tags and cut ends)
chain: FSGGNTGINFEKYDDIPVEATGNNCPPHIESFSDVEMGEIIMGNIELTRYTRPTPVQKHAIPIIKEKRDLMACAQTGSGKTAAFLLPILSQIYSDGPGEALRAMKENGRYGRRKQYPISLVLAPTRELAVQIYEEARKFSYRSRVRPCVVYGGADIGQQIRDLERGCHLLVATPGRLVDMMERGKIGLDFCKYLVLDEADRMLDMGFEPQIRRIVEQDTMPPKGVRHTMMFSATFPKEIQMLARDFLDEYIFLAVGRVGSTSENITQKVVWVEESDKRSFLLDLLNATGKDSLTLVFVETKKGADSLEDFLYHEGYACTSIHGDRSQRDREEALHQFRSGKSPILVATAVAARGLDISNVKHVINFDLPSDIEEYVHRIGRTGRVGNLGLATSFFNERNINITKDLLDLLVEAKQEVPSWLENMAYEHHYKGSSRGRSKSSRFSGGFGARDYRQSSGASSSSFSSSRASSSRSGGGGHGSSRGFGGGGYGGFYNSDGYGGNYNSQGVDWWGN
notes: also called dominant negative mutant DDX3 lacking amino acids 1-150; truncated DDX3
B3: no binding [4].

B4: DDX3Δ101-662 (other)
chain: HHHHHHRSDYDGIGSRGDRSGFGKFERGGNSRWCDKSDEDDWSKPLPPSERLEQELFSGGNTGINFEKYDDIPVEATGNNCPPHIESFSDVEMGEIIMGNIELTRYTRPTPVQKHAIPIIKEKRDLMACAQTGSGKTAAFLLPILSQIYSDGPGEALRAMKENGRYGRRKQYPISLVLAPTRELAVQIYEEARKFSYRSRVRPCVVYGGADIGQQIRDLERGCHLLVATPGRLVDMMERGKIGLDFCKYLVLDEADRMLDMGFEPQIRRIVEQDTMPPKGVRHTMMFSATFPKEIQMLARDFLDEYIFLAVGRVGSTSENITQKVVWVEESDKRSFLLDLLNATGKDSLTLVFVETKKGADSLEDFLYHEGYACTSIHGDRSQRDREEALHQFRSGKSPILVATAVAARGLDISNVKHVINFDLPSDIEEYVHRIGRTGRVGNLGLATSFFNERNINITKDLLDLLVEAKQEVPSWLENMAYEHHYKGSSRGRSKSSRFSGGFGARDYRQSSGASSSSFSSSRASSSRSGGGGHGSSRGFGGGGYGGFYNSDGYGGNYNSQGVDWWGN
notes: also called DDX3 with the first 100 amino acids deleted; DN
B4: no binding [5].

B5: His-tagged DDX3 C-terminal fragment (amino acids 310-662) (other)
chain: HHHHHHIRDLERGCHLLVATPGRLVDMMERGKIGLDFCKYLVLDEADRMLDMGFEPQIRRIVEQDTMPPKGVRHTMMFSATFPKEIQMLARDFLDEYIFLAVGRVGSTSENITQKVVWVEESDKRSFLLDLLNATGKDSLTLVFVETKKGADSLEDFLYHEGYACTSIHGDRSQRDREEALHQFRSGKSPILVATAVAARGLDISNVKHVINFDLPSDIEEYVHRIGRTGRVGNLGLATSFFNERNINITKDLLDLLVEAKQEVPSWLENMAYEHHYKGSSRGRSKSSRFSGGFGARDYRQSSGASSSSFSSSRASSSRSGGGGHGSSRGFGGGGYGGFYNSDGYGGNYNSQGVDWWGN
notes: also called C-terminal deletion mutant
B5: no binding [6].
